Laboratory results reported in a protein production outcome set (Wang et al. 2014).

Assay: label from the status in PepcDB records

Row | Sequence | protein production
1 | MVSPQGVIVARAIISCGVASKKPFYRDQTMETDFSVHSHKGKGSLMRRKPALRLLCSAALAAALAIGAGASPGFAETKAKPEDKAVTFDPGKVNTFSGAFLAGRNADVDQDYPTAISLYKKALEYDPANSEIRQRLMIAELLSGNFEAGAKIADSMKDDTSVERVTTIVRGLDAIKDKEFTKAEKILKYTGPNDLDRMVNTLLTAWARAGSGKPKEALALVNNMKGPGWISIFQKYNAAAIALVSGNTEAARKSLNEAVTDREGGATASDTYMRAVMALARLEASAGNKQKALDAIAVGDTFAPNYAPLKALREAIEKGEKPEQQITNAVEGAASVMFSIAGALNREGAEEIVTLYLQTSRALDPKSPDTLILLGGLAEAMKQPERAITFYREVPKDSPMHRISELQLGLTLAQTGKVEESRKHLLSLLESDPKDIRSYLAYGSVLSDAKDYKAMAENYDKAVEVIGAVPQKSDWSVFFQRGIAYERLKQWDKAEPNFKRALELNPEQPQVLNYLGYSWVDKGINLDEGMKMISRAVELRPNDGYIVDSLGWAHYRLGDFDQSVTELERAIELKAGDPTINDHLGDAYWRVGRKIEAVYQWNRALIGDNDDVDKAKVKEKIANGLPPVEKDAENTAKKDVAPQPPAPPAPATPTPDKKS | failed
2 | MVSRDFDRDKRLLTARQFSAVFDSPTGKVPGKHVLLLARENGLDHPRLGLVIGKKNVKLAVQRNRLKRLIRESFRHNQETLAGWDIVVIARKGLGELENPELHQQFGKLWKRLLRNRPRTESPADAPGVAD | not failed
3 | MVSSVLEVSHVFCCPNRVRGALSWNTGPGGLLAFGTSCSVVLYDPQKKVVITNLNGHTARVNCLQWIRTEDGSPSNELVSGGSENRVIHWELENNQVLKSVRLQGHEGPVCAVHAIYQSGPSEGEQHALIASAASDSTVRIWSKKGSEVKYLQTLSFRDGFVLSVCLAILPGTNVPVLACGDDDCRIHLYIQQDDQFQKALSLCGHEDWIRGVEWATFGRDLFLASCSQDCLIRIWRLYMKPASFETKDGSLRLKENTFTIKDGGVRTTVAVTLETVLAGHENWVNAVHWQPSFYKDGVLQQPVRLLSASMDKTMILWAPDEESGVWLEQVRVGEVGGNTLGFYDCQFGENGTMIIAHAFHGALHLWKQSTVNPRQWAPEIVISGHFDGVQDLMWDPEGEFIITTSTDQTTRLFAPWKKKDQKDRSQVTWHEIARPQIHGYNIKCLAMIDRFQFVSGADEKVLRVFSAPRNFVENFSVISRQSLSHMLCDDQDLPEGATVPALGLSNKALFQGDIASQPFEEDELISPAFGSPQVTFQPAVLNEPPTEDHLLQNTLWPEIQKLYGHGYEIVCVACNNSKTLLASACKASQKEHAAIILWSTASWKQVQSLAFHTLTVTQMTFSPDDKFLLAVSRDRTWSLWKRQDATSSEFDPFFSLFAFTNKITSVHSRIIWSCDWSPDNKYFFTGSRDKKVVVWGECKSSHNPMEHPIRPCSSILDVGSSVTAVSVCPVLNPAQRYIVAIGLESGKICIYSWNKTNQEINDWTSCVETNPSQSHSLGIRRLCWKSCSDDDDDDDDDDTEQSEEGPEWLHFASCGEDHTVKIYRVNRRAL | failed
4 | MVSTRTHANGPADAGRTRLLFAAEIFPMNVFSRYLIRHLFLGFAAAAGLLLPLFTTFNLINELDDVSPGGYRWTQAVLVVLMTLPRTLVELSPFIALLGGIVGLGQLSKNSELTAIRSMGFSIFRIALVALVAGILWTVSLGAIDEWVASPLQQQALQIKSTATALGEDDDITGNMLWARRGNEFVTVKSLNEQGQPVGVEIFHYRDDLSLESYIYARSATIEDDKTWILHGVNHKKWLNGKETLETLDNLAWQSAFTSMDLEELSMPGNTFSVRQLNHYIHYLQETGQPSSEYRLALWEKLGQPILTLAMILLAVPFTFSAPRSPGMGSRLAVGVIVGLLTWISYQIMVNLGLLFALSAPVTALGLPIAFVLVALSLVYWYDRQH | failed
5 | MVTALARPEQTMQELAFRTLLYRYFFFDWLFKDASRGDLRERSAAWRFNQAHAHWLLTYLRRWVWCGALFCLLGGSIELMLSAPVLSAFFYVPGVLSVPINVVICVLWVGLKTLPGPM | failed
6 | MVTIKEYSVPQSLEEAYKILISKKNNVILGGCGFIKLSNKNIGTAIDLKDINLNYIKEDEKNILIGADTSLRSLEIDKTIKNYCSGILSSAVSNIVGVQFRQGARIGASVFSKYGFSDLIPALLVVGAKVRLYNKGILELSEFLDSELSRDILVEVILPKKDAIAVFDSIRKCTGDFSVLNSAMLKENDTYKIAIGARPQKARLALEASNILNKEKDIDKASIVASKELTYGSNMRASKEYRKDMASALVKRMYNAIEEGMYND | failed
7 | MVTIPIFLAIIGATMMVVVWSAKQTKSAADFYTAGGGITGTQNGWAIAGDYMSAASFLGISGIISLYGYDGFMYSVGWLVAYITVLLIVAEPCRNAGKFTLGDILSFRTEPKSVRAAAAISTVAVSTFYLTAQMVGAGKLMQLLLGIPYKTAVIGVGILMVGYVVFGGMTATTWVQIIKAGLLMSGAALLSVLVGLKSGMSPFQFFNDIATSPNIIEHVQKVVLKDPVAVAGFDYGQRFLEPGLFLKNPLDQISLGMALVLGTAGMPHILMRFFTVPTAQAARKSVIIAMFIIGSFYILTTLLGFGAAIHVTPQSIMNVDKGGNMAAMMLAQQLGGDIHPFLGDLLLAFLCAVAFATILAVVSGLVLAASAAIAHDIYVNVIKGGHADQHEQVKAARITSFVVGACGIAIGIAAEKQNVAHLVALAFAVAASGNLPVVVLSLFWKKFNTAGVIAGLVTGTVVSIALVMVSPNMTYPKKVAEDAQKVVVKLEEKQAGGAVLTEKEMKDLGKAKADYEKNKDGKSFLGLDKPLFALKNPGVVSIPLGFIAAVIAALAFPSRRSEEMFDELYVRQNTGIGIAKAVDH | failed
8 | MVTPIAVVGPTASGKSALGIALAHKLDGEVVNVDSMQLYKGMDIGTAKLTVEEREGIAHHQLDVWDVTETASVARFQSDAVADVEDIMSRGKTPILVGGSMLYVQSLVDDWQFPPTDSAVRARFEARLADIGVEALHAELTQLDPEAAAVIESNDPRRTVRALEVIELTGQPFQASQPPKDAPPRWGTRIIGLKTTPEWLNPRIEQRTARMFEQGFVAEVEHLVQQGLIADSTAGRAIGYSQVLAAMAGEMTWEDAFERTVTGTRRYVRRQRSWFNRDHRVSWVDASGDPTAQALEILGLQLEHHHHHH | not failed
9 | MVTPSLRLVFVKGPREGDALDYKPGSTIRVGRIVRGNEIAIKDAGISTKHLRIESDSGNWVIQDLGSSNGTLLNSNALDPETSVNLGDGDVIKLGEYTSILVNFV | not failed
10 | MVTSSSMRRCRGALSLSFWIFLVLRSVLSRPVFGAAAGPAVQSARQCSASRGTGESDPPPFQPTLRLFPPSRRRRSYCRAMTPSRPSPDFPDGGFVQVRGARQHNLKDISVKVPRDALVVFTGVSGSGKSSLAFGTLYAEAQRRYLESVSPYARRLFNQAGVPDVDAIDGLPPAVALQQARGTPTARSSVGSVTTLSNLLRMLYSRAGDYPPGQGIVYAEGFSPNTPEGACPECHGLGRVYTVTEDSMVPDPSLTIRERAVAAWPQAWGGQNQRDILVTLGIDVDVPWRELPEETRHWILFTDEQPVVPVYPGLTPAETQRALKKKMEPSYMGTFSSARRHVLHTFANTESASMKKRVQGYMISEECPLCHGKRLRQEALNVTFAGLDITELSRLPLARVSELLRPYAEEREPGHAERVKNRPEQAIALQRMAADLVKRLDVLLHLGLGYLGLDRSTPTLSPGELQRLRLATQLYSNLFGVVYVLDEPSAGLHPADTEALLSALENLKRGGNSLFVVEHDLDVIRRADWLVDVGPEAGEKGGEILYSGPPEGLKHVPESQTGQYLFADRHTEPHTPREPAGWLELNGVTRNNLDNLDVRFPLGVMTSVTGVSGSGKSTLVSQALVDALAAHFGQPVNPDPEDDEDPADHTAGSARLGGDLAQITRLVRVDQKPIGRTPRSNMATYTGLFDQVRKLFAATPLAKKRGYNAGRFSFNVKGGRCEHCQGEGWVMVELLFLPSVYAPCPVCHGTRYNAETLEVEYRGKNIADVLALTVDEAHDFFADESAIFRALDTLREVGLGYLRLGQPATELSGGEAQRIKLATELQRSGRGGTVYVLDEPTTGLHPADVERLQRQLVKLVDAGNTVIAVEHKMQVVAASDWVLDIGPGAGEDGGRLVAQGTPAEVAQAAGSVTAPYLRAALRLEHHHHHH | failed
11 | MVTVMRTLMPKIGRIAAKMTLCALCVAPMFSVQATELNWPEQPFRYYADNDSLKDLLNNFGANYRVSVSVSDKVNDRVSGRFTPEDPAEFLDYLAQVYNLMWYFDGAVLHVYKATETRSRLLQLELLTARELRSTLISTGVWDARYGWRAAENKGLVYLAGPPRYVELVVQTAEALESRLLQKSNSTDELFVELIPLKYASATDRSISYRDQSITVPGIASVLSRVVGGVQTQITDSASVQTSSVNGLPAEAAKPRGKTASVHGGATVEAEPGLNAIIVRDTQARLPLYRKLVAQLDQPQSRIEVALSIVDISANDLRQLGVDWRAGVSVGNNRIVDIKTTGDVDNGDVTLGSGQSFKSLLDSTNLNYLLAQIRLLESKGSAQVVSRPTLLTQENVEAVLNNSSTFYVKLVGKETAALEEVTYGTLLRIVPRIVGDRFATRPEINLSLHLEDGAKIPDGGVDDLPSVRKTEISTLATVKQGQSLLIGGVYRDEVSHQLRKVPLLGDIPYLGALFRSNTNTTRRTVRMFIIEPRIVVDGIGDSVLIGNEHDLRPSIGQLNNISNNSAEFKSVVEVFSCTSKTQAERYQQDLLSQQKSSLLTQCQLPSGQVGWRVKVAECDLSQAECVRPSEEP | failed
12 | MVVLMLCAALLVIVGCPETALGKGLRRWLVDWPAKVLAGLTPARLVLLLALLAVSTLVVVLFEVEGAILLGMALPEVAVWFMAFDVAVFIDLFAAIALAANGARLKGLGDRIKALPRRFGRGLVARVRRSGQGRQGGRRFRRPGSGATKSEDGDAGWSGAAQPGALAWA | failed
13 | MVVNKRLILILLFILNTAKSDELSWKGNDFTLYARQMPLAEVLHLLSENYDTAITISPLITATFSGKIPPGPPVDILNNLAAQYDLLTWFDGSMLYVYPASLLKHQVITFNILSTGRFIHYLRSQNILSSPGCEVKEITGTKAVEVSGVPSCLTRISQLASVLDNALIKRKDSAVSVSIYTLKYATAMDTQYQYRDQSVVVPGVVSVLREMSKTSVPASSTTNGSPATQALPMFAADPRQNAVIVRDYAANMAGYRKLITELDQRQQMIEISVKIIDVNAGDINQLGIDWGTAVSLGGKKIAFNTGLNDGGASGFSTVISDTSNFMVRLNALEKSSQAYVLSQPSVVTLNNIQAVLDKNITFYTKLQGEKVAKLESITTGSLLRVTPRLLNDNGTQKIMLNLNIQDGQQSDTQSETDPLPEVQNSEIASQATLLAGQSLLLGGFKQGKQIHSQNKIPLLGDIPVVGHLFRNDTTQVHSVIRLFLIKASVVNNGISHG | failed
14 | MVYFYPINDSRWYTFIHLFLYCKALKLLVVPNSKGVSPIFNQITIHNQHTENWLIIGLFCGAFVTGADAFIISALLPAIATSLHVPTNTAAYGVTVYALCYAIGAPLFGPLGDRFNKRFLLIRGCGIFLLGTLLCGLANSLLTFYLYRAIAGIGAALFVPNIWAFIGTYFNGQRLNQVMGIVMSALSLSIATGVPLGALLAQLSSWHMAFWGSAMLTLIALSILTIAIPSLPSQNAQPDGYFTSFKTLVHTPHAIAALLITLTWMTGFYGVYTFLGVFATATFHFNTMQTGLIFITYGSANFVASFFAGKLISLLGKKQSVTINGLVSATLVLSLGIWGQHLAVLLIILVVLALSQGWGVTALTATIVNIVPSNRSTIMSFNSAFLYYGLTLGSAAGGLLLTKIGFYAVTIAAATALLVAVLIANALSHYSD | failed
15 | MVYVDPDRFDELVAEALDGIPEEFARAMRNVAVFVEDEPDDPELLGLYVGIPLTERTTAYGGVLPDRIIIYRNTICALCETESEVIDEVRKTVVHEIAHHFGIDDERLHELGY | not failed
16 | MWAFLVEQPNLPYTIAFACVLVLGVFEALALLIGLSMMSALDQWVPADVEYDADIGGSGLTGIAGWLCLNRLPLLIWFVLALTSFAIAGYLVNYISLMVSATLLPQLFTLPIAVVGSALSCRYLGRMLADLLPKNESTAISLDDLSGYVGTITLGCAIKGMPSEAVVRDKHQQKHYVLVEPETSGIEFASGTQVVLLKREGRVWSATRFDN | failed
